This note sets out measurements from paper PMC10002499 (2023).

For the assay, the target named is PDCD6 (ALG-2) construct (rat, UniProt G3V7W1 1-191). Briefly: SPR; 0 added Ca2+. On the technique in general: SPR reads the build-up and loss of mass on a sensor chip optically.
Chain of PDCD6 (ALG-2) construct (G3V7W1 whole entry): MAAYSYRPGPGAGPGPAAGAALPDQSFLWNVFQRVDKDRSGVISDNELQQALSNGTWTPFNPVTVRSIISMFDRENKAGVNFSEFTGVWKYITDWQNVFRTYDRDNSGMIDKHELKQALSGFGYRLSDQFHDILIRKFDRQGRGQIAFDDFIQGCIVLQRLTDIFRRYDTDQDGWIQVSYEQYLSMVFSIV

B1: dysferlin extended C2DE region (aa 1284-1576) (domain or fragment)
chain: AIHHIPGFEMHETSRILDETEDTDLPYPPPQREANIYMVPQNIKPALQRTAIEILAWGLRNIKSYQMASVSSPSLVVECGGQTVQSCVIRNLRKNPNFDVCTLFMEVMLPREDLYCPPIVVKVIDNRQFGRRPVVGQCTIRSLENFLCDPYSAESPSPQGGPDDVSLLSPGEDVLIDIDDKEPLIPVQEEEFIDWWSKFFASIGEREKCGSYLEKDFDTLKVYDTQLENVEAFGGLSDFCNTFKLYRGKTQEDTEDPSVIGEFKGLFKIYPLPEDPAIPMPPRQFHQLAAQGP
Broadly, the Kd is the free concentration of one partner at which half of the binding sites on the other are occupied at equilibrium, for simple one-to-one binding. Lower therefore signals higher affinity. Molecule B1 had an equilibrium dissociation constant (Kd) of 160 nM.
